{
  "source": "paper PMC9098913",
  "about": "“In vitro reconstitution of Escherichia coli divisome activation” (Nature Communications, 2022)",
  "molecules": {"B1": {"name": "FtsZ (natural protein, E. coli, UniProt P0A9A6 1-383, looked up)", "chain": "MFEPMELTNDAVIKVIGVGGGGGNAVEHMVRERIEGVEFFAVNTDAQALRKTAVGQTIQIGSGITKGLGAGANPEVGRNAADEDRDALRAALEGADMVFIAAGMGGGTGTGAAPVVAEVAKDLGILTVAVVTKPFNFEGKKRMAFAEQGITELSKHVDSLITIPNDKLLKVLGRGISLLDAFGAANDVLKGAVQGIAELITRPGLMNVDFADVRTVMSEMGYAMMGSGVASGEDRAEEAAEMAISSPLLEDIDLSGARGVLVNITAGFDLRLDEFETVGNTIRAFASDNATVVIGTSLDPDMNDELRVTVVATGIGMDKRPEITLVTNKQVQQPVMDRYQQHGMAPLTQEQKPVAKVVNDNAPQTAKEPDYLDIPAFLRKQAD", "modifications": "Alexa Fluor 488 C5 maleimide on the cysteine of the added N-terminal residues AEGCGEL in the labelled form; unlabelled FtsZ also used", "notes": "FtsZ, E. coli, cloned into a pTB146-derived vector; Present as GTP-dependent treadmilling filaments in the assays; also called Alexa488-FtsZ; FtsZ filaments; source: E. coli BL21, purified (Ni-NTA, His6-SUMO cleaved with Ulp1, polymerisation with CaCl2 and GTP); not shown: His6-SUMO, N-terminal, cleaved; seven residues AEGCGEL for maleimide coupling, N-terminal, kept"}, "B2": {"name": "FtsZ: E. coli tubulin-like FtsZ forming treadmilling filaments; labelled with Alexa Fluor 488 (protein)", "chain": "B1 chain", "modifications": "Alexa Fluor 488 C5 maleimide on the cysteine of the added N-terminal residues AEGCGEL in the labelled form; unlabelled FtsZ also used; left off: His6-SUMO, N-terminal, cleaved | seven residues AEGCGEL"}},
  "key": {"FtsA R286W (1-405)-6xHis": {"target": "T1, FtsA R286W (1-405)-6xHis (E. coli, UniProt P0ABH0 1-405, R286W, Cy3 or Cy5 at the N-terminus in the labelled form (sortagging as for native FtsA))", "T1 construct": "FtsA, E. coli, residues 1-405 with R286W; the C-terminal amphipathic helix replaced by a 6xHistidine tag; plasmid pNB5; Attached to membranes through Tris-NTA lipids by its His tag; also called FtsA R286W-His6; R286W-His6; source: E. coli BL21, purified (as native FtsA); not shown: TwinStrep-SUMO, N-terminal, cleaved; 5xGlycine tag, N-terminal, kept; His6, C-terminal, kept", "T1 sequence (looked up)": "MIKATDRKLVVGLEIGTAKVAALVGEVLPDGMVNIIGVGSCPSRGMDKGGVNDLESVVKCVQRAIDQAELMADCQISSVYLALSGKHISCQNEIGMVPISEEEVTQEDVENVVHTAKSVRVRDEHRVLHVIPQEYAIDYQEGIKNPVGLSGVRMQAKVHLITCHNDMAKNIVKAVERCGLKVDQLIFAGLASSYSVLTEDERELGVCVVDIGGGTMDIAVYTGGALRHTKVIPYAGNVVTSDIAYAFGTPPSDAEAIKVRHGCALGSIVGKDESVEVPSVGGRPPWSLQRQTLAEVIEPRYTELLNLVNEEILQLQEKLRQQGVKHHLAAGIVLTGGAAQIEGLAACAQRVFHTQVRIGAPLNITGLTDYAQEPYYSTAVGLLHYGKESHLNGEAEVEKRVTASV", "assay": "dual-colour TIRF microscopy on supported lipid bilayers; Cy5-labelled His-tagged FtsA (0.5-1 µM, washed) attached to bilayers with varied Tris-NTA lipid density; 1.25 µM Alexa488-FtsZ added", "conditions": "both partners purified"}, "FtsA WT (1-405)-6xHis": {"target": "T2, FtsA WT (1-405)-6xHis (E. coli, UniProt P0ABH0 1-405, Cy3 or Cy5 at the N-terminus in the labelled form (sortagging as for native FtsA))", "T2 construct": "FtsA, E. coli, residues 1-405; plasmid pNB4; Attached to membranes through Tris-NTA lipids by its His tag; also called FtsA-His6; FtsA WT-His6; source: E. coli BL21, purified (as native FtsA); not shown: TwinStrep-SUMO, N-terminal, cleaved; 5xGlycine tag, N-terminal, kept; His6, C-terminal, kept", "T2 sequence (looked up)": "T1 sequence (looked up) with W286R", "assay": "dual-colour TIRF microscopy on supported lipid bilayers; Cy5-labelled His-tagged FtsA (0.5-1 µM, washed) attached to bilayers with varied Tris-NTA lipid density; 1.25 µM Alexa488-FtsZ added", "conditions": "both partners purified"}, "FtsA R286W": {"target": "T3, FtsA R286W (E. coli, UniProt P0ABH0 1-420, R286W, Cy3 or Cy5 at the N-terminus in the labelled form (labelled CLEPTGG peptide conjugated to the 5xGly tag by sortagging); unlabelled protein also used)", "T3 construct": "also called Cy5-FtsA R286W; hyperactive mutant; source: E. coli BL21, purified (as the wild type: Strep-Tactin, SUMO tag cleaved with Ulp1, SEC); not shown: TwinStrep-SUMO, N-terminal, cleaved; 5xGlycine tag, N-terminal, kept", "T3 sequence (looked up)": "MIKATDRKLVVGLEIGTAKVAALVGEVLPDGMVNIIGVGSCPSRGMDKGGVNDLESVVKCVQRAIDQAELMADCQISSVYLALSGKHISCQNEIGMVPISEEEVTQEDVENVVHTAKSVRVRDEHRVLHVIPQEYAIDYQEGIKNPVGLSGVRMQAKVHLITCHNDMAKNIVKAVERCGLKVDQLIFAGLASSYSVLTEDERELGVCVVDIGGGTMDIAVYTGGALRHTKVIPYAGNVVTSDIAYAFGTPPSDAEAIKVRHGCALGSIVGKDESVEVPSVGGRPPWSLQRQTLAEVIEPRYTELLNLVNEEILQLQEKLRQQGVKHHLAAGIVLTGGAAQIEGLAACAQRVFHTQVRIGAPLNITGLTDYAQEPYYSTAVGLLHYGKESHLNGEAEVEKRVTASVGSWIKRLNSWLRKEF", "assay": "dual-colour TIRF microscopy on supported lipid bilayers; Cy5-FtsA WT or R286W (0.1-0.8 µM) and Alexa488-FtsZ (1.25 µM) on DOPC:DOPG bilayers; reaction buffer with 4 mM ATP, 4 mM GTP", "conditions": "both partners purified"}, "FtsA WT": {"target": "T4, FtsA WT (E. coli, UniProt P0ABH0 1-420, Cy3 or Cy5 at the N-terminus in the labelled form (CLEPTGG peptide labelled with sulfo-Cyanine 3- or 5-maleimide, conjugated to the 5xGly tag by sortagging; degree of labelling 65-70%); unlabelled …)", "T4 construct": "FtsA, E. coli, cloned into vector pMAR19; called full-length in the results; also called wild-type FtsA; Cy5-FtsA WT; source: E. coli BL21, purified (Strep-Tactin, SUMO tag cleaved with Ulp1, SEC); not shown: TwinStrep-SUMO, N-terminal, cleaved; 5xGlycine tag, N-terminal, kept", "T4 sequence (looked up)": "T3 sequence (looked up) with W286R", "assay": "dual-colour TIRF microscopy on supported lipid bilayers; Cy5-FtsA WT or R286W (0.1-0.8 µM) and Alexa488-FtsZ (1.25 µM) on DOPC:DOPG bilayers; reaction buffer with 4 mM ATP, 4 mM GTP", "conditions": "both partners purified"}, "FtsA": {"system": "FtsA", "conditions": "Fig. S2f, intensity after FtsNcyto addition", "method": "Subsequently, the chamber was washed 6x with reaction buffer, to remove bulk peptide. To visualize colocalization with either FtsZ or FtsA, either a mix of FtsA and Alexa488-FtsZ or Cy3-FtsA and FtsZ was added. […] The time-lapse videos were recorded for 10 min after the addition, with one frame per 2 s.\nTime-lapse videos were first intensity-corrected and contrast-enhanced to avoid bleaching effects and simplify subsequent analysis. To remove contributions of X–Y drift, the videos were processed with the Linear Stack Alignment with SIFT plugin. Proper alignment was checked with the 3TP align plugin (J. A. Parker; Beth Israel Deaconess Medical Center, Boston). Subsequently, regions of interest (ROIs) in the center of the stacks were chosen for colocalization analysis. The Pearson’s correlation coefficient (PCC) was quantified with the Image CorrelationJ 1o plugin. To extract information about the relative ratio of FtsZ/FtsA molecules (slope of linear regression), we also used the Image CorrelationJ 1o plugin. As an output, the plugin provides a scatterplot of FtsZ vs FtsA intensities, to which we fitted a linear slope y=k⋅x+d , where k is the slope and d the offset. The slope was used as an estimate for the ratio of FtsA molecules below FtsZ filaments."}, "FtsZ": {"system": "FtsZ", "conditions": "with FtsNcyto-His and His-tagged FtsA", "from_the_text": "coefficients were close to zero and we could not observe complete recovery of the"}},
  "note": "Substitutions are numbered along the chain they refer to. Where two headings read alike, the source gives them in different places.",
  "data": [
    {"molecule": "B1", "values": [
      {"measurement": "binding result", "setting": "FtsA R286W (1-405)-6xHis", "value": "binds"},
      {"measurement": "binding result", "setting": "FtsA WT (1-405)-6xHis", "value": "binds"},
      {"measurement": "binding result", "setting": "FtsA R286W", "value": "binds"},
      {"measurement": "binding result", "setting": "FtsA WT", "value": "binds"}
    ]},
    {"molecule": "B2", "values": [
      {"measurement": "Mean Intensity Fold Change", "setting": "FtsA; 0.10 µM", "value": 1.36},
      {"measurement": "Mean Intensity Fold Change", "setting": "FtsA; 0.20 µM", "value": 1.60},
      {"measurement": "Mean Intensity Fold Change", "setting": "FtsA; 0.40 µM", "value": 1.56},
      {"measurement": "mean recovery time of FtsZ", "setting": "FtsZ", "value": "around 9.5 s"}
    ]}
  ]
}
